Tests used:
Monomeric hAng-2FD = target: T1, Monomeric hAng-2FD (Homo sapiens, UniProt O15123); assay: SPR binding to monomeric hAng-2FD at 25° C. and 37° C.
T1 sequence (O15123 282-496 limits assumed): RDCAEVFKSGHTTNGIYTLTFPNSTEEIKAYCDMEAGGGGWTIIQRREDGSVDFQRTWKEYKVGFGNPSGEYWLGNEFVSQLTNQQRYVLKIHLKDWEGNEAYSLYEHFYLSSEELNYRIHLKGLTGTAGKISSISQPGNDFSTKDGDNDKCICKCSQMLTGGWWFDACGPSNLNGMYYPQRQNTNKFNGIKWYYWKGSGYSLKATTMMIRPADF
Method: Additional experiments were conducted to measure the binding properties of selected anti-Ang-2 antibodies to monomeric hAng-2FD at 25° C. and 37° C. Each selected antibody or control construct was captured at a flow rate of 40 μL/min for 1 minute on a goat anti-human IgG polyclonal antibody surface created through direct chemical coupling to a BIACORE™ chip to form a captured antibody surface. Human Ang-2FD at a concentration of 500 nM or 7.8 nM was injected over the captured antibody surface at a flowrate of 60 μL/min for 3 minutes, and antigen-antibody dissociation was monitored in real time for 20 minutes at either 25° C. or 37° C.

[1] = target: biotin-hBA2 binding to hTie-2 (Homo sapiens, UniProt O15123); assay: ELISA blocking of biotinylated hBA2 binding to hTie-2-His; assay type: biochemical; settings: antibodies cloned onto human IgG1; NB: no blocking observed at 5 nM concentration; read-out: Biotin - hBA2 IC50
biotin-hBA2 binding to hTie-2, sequence (O15123 with tags, fused parts or gaps): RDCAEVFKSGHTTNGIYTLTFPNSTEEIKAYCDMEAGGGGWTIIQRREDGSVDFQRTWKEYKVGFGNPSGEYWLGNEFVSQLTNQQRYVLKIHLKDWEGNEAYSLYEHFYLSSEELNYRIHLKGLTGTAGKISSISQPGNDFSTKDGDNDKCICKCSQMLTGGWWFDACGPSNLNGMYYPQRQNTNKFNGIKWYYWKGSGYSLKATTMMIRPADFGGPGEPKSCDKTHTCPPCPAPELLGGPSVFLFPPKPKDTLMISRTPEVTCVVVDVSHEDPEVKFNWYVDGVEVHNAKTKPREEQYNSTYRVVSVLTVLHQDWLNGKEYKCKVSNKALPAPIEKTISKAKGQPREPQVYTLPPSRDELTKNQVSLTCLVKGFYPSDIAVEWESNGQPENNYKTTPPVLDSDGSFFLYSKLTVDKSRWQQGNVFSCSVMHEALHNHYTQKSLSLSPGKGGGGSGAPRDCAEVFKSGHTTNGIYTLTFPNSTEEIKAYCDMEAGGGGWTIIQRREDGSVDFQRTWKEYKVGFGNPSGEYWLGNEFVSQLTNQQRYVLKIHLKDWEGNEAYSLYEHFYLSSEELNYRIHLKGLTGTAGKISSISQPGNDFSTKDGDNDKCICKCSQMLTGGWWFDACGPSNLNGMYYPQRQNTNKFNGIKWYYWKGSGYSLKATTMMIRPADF
Method: For this experiment, human Tie-2 conjugated to a histidine tag (hTie-2-His; SEQ ID NO:526) was used in a similar fashion to the hTie-2-mFc described above. Antibody concentrations from 5 nM were serially diluted three-fold. […] An average IC50 value for each antibody was calculated based on two separate experiments.

[2] = tested on: Tie-2 phosphorylation (Ang-2-mediated) in HUVECs; assay: Inhibition of Ang-2-mediated Tie-2 phosphorylation in FOXO1-adenovirus infected HUVECs; assay type: cell-based, human; settings: antibody 0.5 μg/ml
Method: Further, the inventors have shown that infection of HUVECs with an adenovirus encoding FOXO1 results in expression and secretion of Ang-2, followed by activation of Tie-2 phosphorylation (Daly et al. 2006 PNAS 103:15491).
Anti-Ang-2 antibodies were tested for their ability to inhibit Tie-2 phosphorylation. Briefly, 7×10^5 HUVECs (Vec Technologies, Rensselaer, N.Y.) were plated in 6 cm cell culture dishes in 3.5 ml of MCDB131 Complete medium (Vec Technologies, Rensselaer, N.Y.). The following day, the cells were washed with Opti-MEM (Invitrogen Corp., Carlsbad, Calif.) and fed with 2 ml of Opti-MEM. […] Cells were then washed with MCDB131 and fed with 2 ml of MCDB131 containing anti-Ang-2 antibodies at a concentration of 0.5 μg/ml. At twenty hours post infection, cells were lysed and subjected to Tie-2 immunoprecipitation as described by Daly et al., Proc. Natl. Acad. Sci. USA 103:15491-15496 (2006). Immunoglobulin was collected on protein A/G beads (Santa Cruz Biotechnology, Santa Cruz, Calif.) for one hour. […] Signals were detected using HRP-conjugated secondary antibodies and ECL reagents (GE Healthcare, Piscataway, N.J.). X-Ray films were scanned and the phospho-Tie-2 and Tie-2 signals were quantified using ImageJ software. […]

MMT tumors = assay: MMT tumor growth in SCID mice; assay type: in vivo; settings: H1H685P 12.5 mg/kg, VEGF Trap 5 mg/kg
Method: To provide additional evidence of combination efficacy, the effect of the H1H685P+VEGF Trap combination on the growth of MMT tumors was assessed. 0.5×10^6 MMT cells were implanted subcutaneously into the right hind flank of 6-8 week-old female SCID mice. […] The Fc and H1H685P groups were given 3 doses over 9 days. The VEGF Trap and combination groups were given 4 doses over 12 days. Tumor volumes were measured twice per week over the course of the experiment and tumor weights were measured upon excision of tumors at the end of the experiment (due to their large size, tumors from the Fc and H1H685P groups were collected 3 days before tumors from the VEGF Trap and combination groups). Averages (mean+/−standard deviation) of tumor growth from the beginning of treatment and of tumor weight were calculated for each group. Percent decrease of tumor weight and growth are calculated from comparison to the Fc control group.

hAng-2FD-mFc N-467-G = target: T2, hAng-2FD-mFc N-467-G (Homo sapiens, UniProt O15123, N467G); assay: Ang-2FD-mFc point mutant binding experiment (SPR), N-467-G; settings: N-467-G mutant captured; antibody/peptibody at 100 nM; 25° C.
T2 construct: made in house
T2 sequence (O15123 with tags, fused parts or gaps N467G): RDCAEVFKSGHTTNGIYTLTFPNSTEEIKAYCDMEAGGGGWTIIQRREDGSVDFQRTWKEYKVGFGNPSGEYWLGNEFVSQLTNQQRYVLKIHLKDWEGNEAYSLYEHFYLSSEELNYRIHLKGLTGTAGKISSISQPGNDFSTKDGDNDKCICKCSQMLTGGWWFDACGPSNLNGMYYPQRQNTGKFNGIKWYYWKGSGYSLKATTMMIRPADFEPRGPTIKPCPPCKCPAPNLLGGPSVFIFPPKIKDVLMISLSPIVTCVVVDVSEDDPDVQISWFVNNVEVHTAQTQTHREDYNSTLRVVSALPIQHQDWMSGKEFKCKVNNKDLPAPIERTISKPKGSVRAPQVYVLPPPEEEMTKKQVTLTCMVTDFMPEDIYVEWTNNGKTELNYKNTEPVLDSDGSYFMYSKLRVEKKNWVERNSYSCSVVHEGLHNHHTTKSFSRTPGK
Text: To further characterize binding between hAng2 and anti-hAng2 mAbs of the invention, seven variant hAng2-FD-mFc proteins were generated, each containing a single point mutation. Amino acids selected for mutation were based on the difference in sequence between hAng-2 and hAng-1 in the region that interacts with hTie-2 (FIG. 1). In particular, amino acids within the fibrinogen-like domain (FD) of Ang-2 which are believed to interact with Tie-2 based on crystal structure analysis, but which differ from the corresponding amino acid in Ang-1, were individually mutated to the corresponding hAng-1 residue. The results of this example indicate the amino acid residues of hAng-2 with which the Ang-2 preferential binding antibodies interact.
In this experiment, each of the seven hAng-2FD-mFc mutant proteins were captured (˜147-283 RU) on an anti-mouse-Fc surface created through direct chemical coupling to a BIACORE™ chip. Then each Ang-2 antibody (or peptibody, as the case may be) at 100 nM was injected over the captured mFc-tagged hAng-2FD protein surface at a flowrate of 50 μl/min for 180 sec, and the dissociation of variant hAng2-FD-mFc and antibody was monitored in real time for 20 min at 25° C.

Substance: H1H685P: human anti-Ang-2 antibody, HCVR/LCVR SEQ ID NOs 18/20; also referred to as mAb1 [Antibody H1H685P]
- Kd (Monomeric hAng-2FD; 25° C.): 0.336 nM
- ka, binding to monomeric hAng-2FD (Monomeric hAng-2FD; 25° C.): 244000 M/s
- kd, binding to monomeric hAng-2FD (Monomeric hAng-2FD; 25° C.): 7.96e-05 s⁻¹
- Kd (Monomeric hAng-2FD; 37° C.): 0.342 nM
- ka, binding to monomeric hAng-2FD (Monomeric hAng-2FD; 37° C.): 406000 M/s
- kd, binding to monomeric hAng-2FD (Monomeric hAng-2FD; 37° C.): 0.000139 s⁻¹
- IC50 [1]: 0.02 nM
- Inhibition of Tie-2 phosphorylation [2]: +++ (75-100%)
- Inhibition of Tie-2 phosphorylation (in words) [2]: Especially robust inhibition
- % Decrease in Tumor Growth (MMT tumors): 15%
- % Decrease in Tumor Weight (MMT tumors): 11%
- Avg Tumor Growth (MMT tumors): 1135 ± 306 mm^3
- Avg Tumor Weight (MMT tumors): 1.409 ± 0.314 g
- Kd (hAng-2FD-mFc N-467-G): 0.00938 nM
- RU (hAng-2FD-mFc N-467-G): 152.25 RU

Reference: patent publication US9926369B2, “Methods for treating hepatocellular cancer by administering an anti-Ang-2 antibody” (Regeneron Pharmaceuticals, Inc., priority 2009, dated 2018)
